# Measured values taken from patent publication US20200171068A1, “COMPOSITIONS COMPRISING APTAMERS AND NUCLEIC ACID PAYLOADS AND METHODS OF USING THE SAME” (Children's National Medical Center, priority 2017, published 2020).
# Tests used:
# hematopoiesis = experiment: Carboplatin-induced myelosuppression in mice; type: in vivo, mouse
# Protocol: For xenograft models, the NSG mice and BALB/c mice were subcutaneously injected with 2×10^6 viable MDA-MB-231 cells and TUBO cells in their right hind limbs, respectively. After the tumor grew to 1 cm in diameter, mice were randomly divided into the groups for each treatment. For no treatment control, 100 μl saline with 1% mouse serum was intravenously injected through tail vein. For treatment groups, 670 pmol/20 g chimeras and/or 5(0 mg/kg 5-fluorouracil (5-FU), or 120 mg/kg carboplatin were also intravenously injected. Tumor sizes were measured in two dimensions every 3 days. Tumor volume (V) was calculated using the following formula: V=(½) S^2×L (S. the shortest dimension; L, the longest dimension). Animals were euthanized when the tumor size was over 2 cm diameters, tumor ulcerated, or became necrotic. For chimera treatment in normal mice, C57BL/6 mice were treated with miR-26a chimera (670 pmol/20 g) everyday for 3 days by intravenous injection. At day 2, 150 mg/kg 5-FU and/or 120 mg/kg carboplatin was injected together with the chimera. Peripheral bloods were collected at day 5 and day 10 after the 5-FU treatment. Complete blood counts were measured by Hemavet 950FS (Drew Scientific, Miami Lakes, Fla., USA).
# [1] = Plasma levels and in vivo imaging of miR-26a chimera in TUBO tumor-bearing BALB/c mice; parameters: species or system mouse; settings: 670 pmol single intravenous dose, qPCR
# Protocol: FIG. 8A is a graph showing the pharmacokinetics of plasma levels of miR-26a chimera and the single dose administration in BALB/c mice bearing mouse TUBO breast cancer cell line. miR-26a chimera (670 pmol/20 g) was injected intravenously. Blood samples were collected at the indicated time points. The concentrations of miR-26a were determined by quantitative PCR using standard curve generated with dose-titrated miR-26a chimera. Data were pooled from three experiments, involving a total of 3 mice. FIG. 8B is a series of pictures showing in vivo imaging of miR-26a chimera conjugated with AF647 dye in BALB/c mice bearing tumor with TUBO cell line. A single dose of miR-26a chimera (670 pmol/20 g) was intravenously injected and followed by serial fluorescence imaging at the indicated time points by IVIS spectrum (Caliper LifeSciences, Waltham, Mass.). Data shown are series images from one experiment. Similar data were obtained from another experiment.
# TUBO-derived tumors = experiment: Syngeneic TUBO breast tumor model in BALB/c mice; type: in vivo, mouse
# TUBO cells = experiment: Binding to TUBO cells by flow cytometry; parameters: species or system mouse; settings: biotinylated
# Protocol: DNA sequences for anti-human KIT aptamer (21) and mouse c-Kit aptamers (22) conjugated with biotin at 3′ were functionalized by short denaturation-renaturation step (95° C. 10 min, 5 min snap-cooling on ice). These DNA sequences were 5′-[…] […]-3′ (SEQ ID NO: 2) for human KIT, 5′-[…]-3′ (SEQ ID NO:3) for mouse c-Kit. These activated aptamers were used for binding assay to the cell lines by flow cytometry. For chimera preparation, human KIT-aptamer or mouse c-Kit-aptamer miR-26a chimera was assembled by three compartments of DNA/RNA hybrid sequences. The sequences were 5′-[…] […]/C3 (SEQ ID NO:4) spacer/CCUAUUCUGG-3′(SEQ ID NO:5) for human KIT aptamer+the part of passenger sequence for miR-26a-5p, 5′-[…]/C3 (SEQ ID NO:6) spacer/CCUAUUCUGG-3′ (SEQ ID NO:7) for mouse cKit aptamer+the part of passenger sequence for miR-26a-5p, 5′-GUUACUUGCACG/TEG (triethylene glycol)-Cholesterol-3′ (SEQ ID NO:8) for the part of sequence for miR-26a-5p+cholesterol, and 5′-[…]-3′ (SEQ ID NO:9) for guide sequence for miR-26a-5p (RNA sequences were represented as italic). The guide sequence for scramble control was […] (SEQ ID NO:10). To protect the oligonucleotide sequences from nuclease degradation, phosphorothioate bonds were introduced between the last 3 nucleotides at the 5′-end of DNA aptamers. The RNA sequences were modified with 2′-fluoro-uridines. […]
molecule,measurement,setting,value
"miR-26a chimera: mouse c-Kit DNA aptamer-C3-passenger RNA, passenger RNA-TEG-cholesterol and miR-26a-5p guide strand annealed (SEQ ID NO:6/7, 8, 9) (nucleic acid, chemistry not fully specified) chain 1: GCTCAACGCGGGACGGCTCTCCCATTGAC chain 2: CCUAUUCUGG chain 3: GUUACUUGCACG guide: UUCAAGUAAUCCAGGAUAGGCU",carboplatin-induced myelosuppression (figure title),"hematopoiesis; 670 pmol/20 g i.v. daily for 3 days, FIG. 6",protects mice against carboplatin-induced myelosuppression
same,carboplatin-induced reduction in WBC and RBC,hematopoiesis; 3 daily injections of chimera,prevented reduction in WBC and RBC
same,carboplatin-induced reduction of platelet on day 5,hematopoiesis; 3 daily injections of chimera,not prevented
same,drop of platelets from day 5 to day 10,hematopoiesis; 3 daily injections of chimera,prevented further drop of platelets
same,time miR-26a chimera could be detected in the blood after injection,[1],≤ 8 h
same,Bak expression among c-Kit+ tumor cells,"TUBO-derived tumors; 670 pmol/20 g, 3 days",not significantly elevated
same,Ezh2 expression among c-Kit+ tumor cells,"TUBO-derived tumors; 670 pmol/20 g, 3 days",specific decrease
same,miR-26a among c-Kit+ tumor cells,"TUBO-derived tumors; 3 days after injection, qPCR",significant increase
same,miR-26a levels in c-Kit+ BM cells,"TUBO-derived tumors; day 3 after single treatment, qPCR",selective increase
same,Bak1 expression in c-Kit+ HSPC,TUBO-derived tumors; mice that received no 5-FU-treatment,not significantly down-regulated
same,binding to TUBO cells,TUBO cells,nearly identical levels comparable to an anti-c-Kit antibody
